According to the RNAGym collection of RNA variant scans (doi:10.1073/pnas.2313332121):
Variants at the floor of the assay were thinned out.

B1: TPR 5TU (parent)
chain: GGAUCUUCUCGAUCUAACAAAAAAGACAAAUCUGCCACAAAGCUUGAGAGCAUCUUCGGAUGCAGAGGCGGCAGCCUUCGGUGGCGCGAUAGCGCCAACGUUCUCAACUAUGACACGCAAAACGCGUGCUCCGUUGAAUGGAGUUUAUCAUG

Variants of: B1
Test: polymerase ribozyme fitness, log enrichment relative to wild type (log ratio); higher = more active; in vitro selection for triplet polymerase activity
Summary of the method: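 Mutant libraries of both subunits of a heterodimeric triplet polymerase ribozyme were PCR-built, transcribed, and selected once in triplicate, with frozen incubation at −7 °C and capture of gel-excised extended constructs on streptavidin beads before RT-PCR. Illumina sequencing of input and output libraries was filtered to genotypes with ≥10 input reads and ≥1 read per output. Fitness is the logarithm of genotype enrichment over wild-type enrichment, using inverse-variance-weighted replicate averages. The logarithm is base 2.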
For GGAUCUUCUCGAUCUAUCAAAAAAGACAAAUCUGCCACAAAGCUUGAGAGCAUCUUCGGAUUCAGAGGCGGCAGCCUUCGGUGUCGCGAUAGCGCCAACGUUCUCAACUAUGACACGCAAAACGCGUGCUCCGUUGAAUGGAGUUUAUCAUG [A17U G62U G84U], the “polymerase ribozyme fitness (log ratio)” value was -2.48. For GGAUCUUCUCGAUCUAACAAAAAAGACAAACCUGCCACAAAGCUUGAGAGCAUCUUCGGAUGCAGAGGCGGCAGCCUUCGGUGGCGCGCUAGUGCCAACGUUCUCAACUAUGACACGCAAAACGCGUGCUCCGUAGAAUGGAGUUUAUCAUG [U31C A89C C93U U135A], the “polymerase ribozyme fitness (log ratio)” value was -2.87. For GGAUCUGCUCGAUCUAACAAAAAAGACAAAUCUGCCACAAAGCUUGAGAGUAUCUUCGGAUGCAGAGGCGGCAGCCUUCGGUGGCGCCAUAUCGUCAACUUUCUCAACUAUGACACGCAAAACGCGUGCUCCGUUGAAUGGAGUUUAUCAUG [U7G C51U G88C G92U C95U G100U], the “polymerase ribozyme fitness (log ratio)” value was ≤ -4.2. For GGAUCUUCUCGAUCUAACAAAAAAGACAAAUCGGCCACAAAGCUUGAGAGCAUCUUGGGAUGCAGAGGCGGCAGCCUUCGGUGGCGCGAUAGCGCCAACGUUCGCAACUAUGACACGCAAAACGCGUGCUCCGUUGAAUGGAGUUUAUCAUG [U33G C57G U104G], the “polymerase ribozyme fitness (log ratio)” value was ≤ -4.2. With GGAUCUUCUCGAUCUAACAAAAAAUACUAAUCUGCCACAAAGCUUGAGAACAUCUUCGGAUGCAGAGGCGGCAGCCUUCGGUCGCGGGUUGGCGCCAACGUUCUCAACUAUGACACGCAAAACGCGUGCUCCGUUGAAUGGAGUUUAUCAUG [G25U A28U G50A G83C C87G A89U A91G] the “polymerase ribozyme fitness (log ratio)” value was ≤ -4.2. In the case of GGAUCUUCUCGAUCUAACAAAAAAGACAAAUCUGCCACAAAGCUUGAGAACAUCUUCGGAUGCAGAGGCGGCACCCUUCGGUGGCGAGAUAGCGCCAACGUUCUCAACUAUGACACGCAAAACGCGUGCUCCGUUGAAUGGAGCUUAUCACG [G50A G74C C87A U144C U151C], the “polymerase ribozyme fitness (log ratio)” value is reported as ≤ -4.2. In the case of GGAUCUUCUCGAUCUAACAAAAAAGACAAAUCUGCCACAAAGCUUGAGAGCAUCUUCGGAUGCAGAGGCGGCAGCCUUCGGUGGCGCGAUAGCGCCAACGUUCUCAAUUAUGACACGCAAAACGCGUGCUCCGUUGAAUGGAGUUAAUCAUG [C108U U146A], the “polymerase ribozyme fitness (log ratio)” value is reported as -2.84. For GGAUCUUCUCGAUCUAACAAAAAGGAAAAAUCUGCCACAAAGCUUGAGAGCAUCUUCGGAUGCAGAGGCGGCAGCCUUCGGUGUCACGAUAGCGCCAACGUUCUCAACUAUGACACGCAAAACGCGUGCUACGUUGAAUGGAGUUUAUCAUG [A24G C27A G84U G86A C131A], the “polymerase ribozyme fitness (log ratio)” value was ≤ -4.2. In the case of GGAUCUUCUCGAUCUAACAAAAAAGACAAAUCUGCCACAAAGCUUGAGAGCAUCUUCGGAUGCAGAGGCGGCAGCUUUCGGUGGCGCGAUAGCGCCAACGUUCGCUACUAUGACACGCAAAACGCGUUCUCCGUUGAAUGGAGUUUAUCAGG [C76U U104G A106U G128U U151G], the “polymerase ribozyme fitness (log ratio)” value is reported as ≤ -4.2. In the case of GGAUCUUCUCGAUCUAACAAAAAAGACAAAUCUGCCACAAAGCUUGAGAGCAUCUUCCGAUGCAGAGGCGCCAGCCUUCGGUGGCGCGAUAUCGCUAACGUUCUCAACUAUGACACGCAAAACGCGUGCUCCGUUGAAUGGAGUAUAUCAUG [G58C G71C G92U C96U U145A], the “polymerase ribozyme fitness (log ratio)” value is reported as ≤ -4.2. In the case of GGAUCUUCUCGAUCUAACAAAAAAGACAAAUCUGCCACAAAGCUUGAGAGCAUCUUCGGAUGCAGAGGCGGCAGCCUUCGGUGGCGCGAUAGCGCGAUCAUUCUCAAGUAUGACACGCAAAACGCGUGCUCCCUUGAAUGGAGUUUAUCAUG [C96G A98U G100A C108G G133C], the “polymerase ribozyme fitness (log ratio)” value is reported as ≤ -4.2. With GGAUCUACUCGAUCUAACAAAAAAGACAAAUCUGCCACAAAGCUUGAGAGCAUCUUCGGAUGUAGAGGCGGCGGCCUUCGGUGGCGCGAUAGCGCCAACGUUCUCAACUAUGACACGCAGAACGCGUGCUCCGUUGAAUGGAGUUAAUCAUG [U7A C63U A73G A120G U146A] the “polymerase ribozyme fitness (log ratio)” value was ≤ -4.2. For GGAUCUUCUCGAUCUUACAAAAAAGACAAAUCUGCCACAAAGCUUGAGAGCAACUUAGGAUGCAGAGGCGGCAGCCUUCGGUGGCGCGAUAGCGACAACGUUCUCAACUAUGACACGCAAAACGCGUGCUCCGUUGAAUGGAGUUUAUCAUG [A16U U53A C57A C95A], the “polymerase ribozyme fitness (log ratio)” value was -2.57. For GGAUCUUCUCGAUCUAACAGAAAAGCCAAAUCUGCCACAAAGCUUGAGCGCAUCUUCGGAUGCAGAGCCGGGAGCCUUCGUUGGAGCGAUAGGGCCAACGUUCUCAACUAUGACACGCAAAACGCCUGCUCCGUUGAAUGGAGUUUAUCAUG [A20G A26C A49C G68C C72G G81U C85A C93G G126C], the “polymerase ribozyme fitness (log ratio)” value was ≤ -4.2. For GGAUCUUCUCGAUCUAACAAAAAAGACAAACCUGCCACAAAGCUUGAGCGCAUCUUCGGAUGCAGAGGCGGCAGCCUUCGGUGGCGCGAUAGGGCCAACGUUCUCAACUAUGACACGCAAAACGCGUGCUCCGUGGAAUGGAAUUUAUCAUG [U31C A49C C93G U135G G143A], the “polymerase ribozyme fitness (log ratio)” value was ≤ -4.2. In the case of GGAUCUUCUCGAUCUAACAAAAAAGACAAAACUGCCACAAAGCUUGAGAGCAUCUUCGGAUGCAGAGGCGGCAGCCUUCGGUGGCGCGAUAGCGCCAACGUUCUCAACUAUGACACGCAAAACGCGUGCUCCGUUGAAUGGAAUUUAUCAUG [U31A G143A], the “polymerase ribozyme fitness (log ratio)” value is reported as -0.454. With GGAUCUUCUCAAUCUAACAAAAAAGACAAAUCUGCCACAAAGCUUGAGAGCAUCUUCGGAAGCAGACGCGGCAGCCUUCGGUGGCGGGAUAGCGCCAACGUUCUCAACUAUGACACGCAAAACGCGUGCUCCGUUGAAUGUAGUUUAUCAUG [G11A U61A G67C C87G G141U] the “polymerase ribozyme fitness (log ratio)” value was ≤ -4.2. In the case of GGAUCUUCUCGAUCUAACAAAAAAGACAAAUCUGCCGCAAAGCUUGAGAGCAUCUUGGGAUGCAGAGGAGGCAGCCUUCGGUGGUGCGAUAGCGCCAACGUUCUCAACUAUGACACGCAUAACGCGUGCUCCGUUGAAUGGAGUUUAUCAUG [A37G C57G C69A C85U A120U], the “polymerase ribozyme fitness (log ratio)” value is reported as -3.21. With GGAUCUUCUCGAUCUAACAAAAAAGACAAAUCUGCCACAAAGCUUGAGAACAUCUUCGGAUGCAGAGGCGGCAGCAUUCGGUGGCGAGAUAGCGCCGACGUUCUCAACUAUGACACGUAAAACGCGUGCUCCGUUGAAUGCAGUUUAUCAUG [G50A C76A C87A A97G C118U G141C] the “polymerase ribozyme fitness (log ratio)” value was ≤ -4.2.
